Assay results from US20070014720A1 (published 2007).

What was measured:
human CD20 [1] = target: T1, human CD20 (human, UniProt P11836 1-297); experiment: FACS KD on SB cells expressing CD20 (GMF against mAb concentration, nonlinear fit)
T1 construct: whole, on cells; In all assays CD20 stood on cells; also called CD20 antigen
T1 sequence (looked up): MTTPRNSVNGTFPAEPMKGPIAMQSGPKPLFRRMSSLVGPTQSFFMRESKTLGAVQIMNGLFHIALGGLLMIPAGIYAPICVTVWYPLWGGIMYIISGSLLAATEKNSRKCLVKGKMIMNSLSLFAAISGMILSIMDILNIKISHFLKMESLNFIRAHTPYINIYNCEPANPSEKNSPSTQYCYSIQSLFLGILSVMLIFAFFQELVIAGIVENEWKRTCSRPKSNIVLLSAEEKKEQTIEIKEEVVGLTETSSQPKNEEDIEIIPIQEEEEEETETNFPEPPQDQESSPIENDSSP
Procedure: The affinity of purified antibodies against CD20 (mAbs 1.1.2, 1.2.1, 2.1.2, 1.3.3, 1.5.3, 1.10.3.1, 1.13.2), Rituximab (positive control), and B1 was determined by FACS. Briefly, SB cells expressing CD20 were resuspended in FACS buffer (2% FBS, 0.05% NaN₃) at a concentration of approximately 5 million cells/mL. HSB cells were also resuspended in FACS buffer at a concentration of approximately 9 million cells/mL. Cells were kept on ice. Purified antibodies were serially diluted in filtered 1×PBS (2×) across 11 wells in 96-well plates. The twelfth well in each row contained buffer only. 1×PBS and cells were added to each mAb well such that the final volume was […] and each well contained approximately 375,000 cells. The final molecular concentration ranges for the mAbs were as follows:
Plates were placed on a plate shaker for 3 hours at 4° C., then spun and washed 3× with PBS. 200 μL of 145 nM Cy5 goat α-human polyclonal antibody was added to each well, and 200 μL of 192 nM Cy5 goat α-mouse polyclonal antibody was added to the cells complexed with B1 antibody. Plates were then incubated for 40 minutes at 4° C., then spun and washed 3× with PBS.
The Geometric Mean Fluorescence (GMF) of 10,000 cells for each mAb concentration was determined using a FACSCalibur instrument. No significant nonspecific binding (no significant signal) was apparent from the HSB cells. In each row containing the SB cells, the signal from the twelfth well (containing buffer only) was subtracted from the signal from the first 11 wells. A nonlinear plot of GMF as a function of molecular mAb concentration was fit using Scientist software using the equation: […]

human CD20 [2] = target: T1, human CD20; experiment: cell-based or functional assay

B1: mAb 1.2.1 (antibody, human IgG1, V domains shown)
VH: EVQLVQSGAEVKKPGESLKISCKGSGYSFTSYWIGWVRQMPGKGLEWMGIIYPGDSDTRYSPSFQGQVTISADKSISTAYLQWSSLKASDTAMYYCARLGDYYNYYGMDVWGQGTTVTVSS
VL: DIVMTQTPLSSPVTLGQPASISCRSSQSLVHSDGKTYLSWLQQRPGQPPRLLIYKSSNRFSGVPDRFSGSGAGTDFTLKISRVEAEDVGVYYCVQATQFPITFGQGTRLEIK
notes: Human IgG1 kappa; also called 1.2.1.1; 50-001H1_2_1_1
Human CD20 [1]
  Kd: 11.9 nM
Human CD20 [2]
  % Lysis Daudi 0.001 µg/ml ADCC: 56%
  % Lysis Daudi 1 µg/ml ADCC: 86%
  % Lysis Raji 0.001 µg/ml ADCC: 8%
  % Lysis Raji 1 µg/ml ADCC: 45%
  % Lysis Ramos 0.001 µg/ml ADCC: 8%
  % Lysis Ramos 1 µg/ml ADCC: 67%
  EC50 µg/ml Daudi CDC: > 10 µg/mL
  EC50 µg/ml Raji CDC: > 10 µg/mL
  EC50 µg/ml Ramos Apoptosis Cell Titer Glo: 15.2 µg/mL
  EC50 µg/ml Ramos CDC: > 10 µg/mL

B2: mAb 1.3.3 (antibody, V domains shown)
VH: EVQLVQSGAEVKKPGESLKISCKGSGYSFTSYWIGWVRQMPGKGLEWMGIIYPGDSDTRYSPSFQGQVTISADKSITTAYLQWSSLKASDTAMYYCARHPSYGSGSPNFDYWGQGTLVTVSS
VL: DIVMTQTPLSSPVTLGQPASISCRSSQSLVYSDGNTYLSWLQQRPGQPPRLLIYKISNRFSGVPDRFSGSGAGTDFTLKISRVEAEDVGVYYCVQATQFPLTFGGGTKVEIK
notes: Human IgG1 kappa
Human CD20 [1]
  Kd: 8.9 nM
Human CD20 [2]
  % Lysis Daudi 0.001 µg/ml ADCC: 63%
  % Lysis Daudi 1 µg/ml ADCC: 88%
  % Lysis Raji 0.001 µg/ml ADCC: 9%
  % Lysis Raji 1 µg/ml ADCC: 33%
  % Lysis Ramos 0.001 µg/ml ADCC: 10%
  % Lysis Ramos 1 µg/ml ADCC: 58%
  EC50 µg/ml Daudi CDC: 1.91 µg/mL
  EC50 µg/ml Raji CDC: 0.22 µg/mL
  EC50 µg/ml Ramos Apoptosis Alamar Blue: 0.0485 µg/mL
  EC50 µg/ml Ramos Apoptosis Annexin V: 0.886 µg/mL
  EC50 µg/ml Ramos Apoptosis Cell Titer Glo: 0.332 µg/mL
  EC50 µg/ml Ramos Apoptosis WST-1: 0.0096 µg/mL
  EC50 µg/ml Ramos CDC: 0.23 µg/mL
